Source: the nanobody polyreactivity screen of Harvey et al. (2022)

Assay: yeast display, Sf9 membrane polyspecificity reagent, FACS + sequencing; frameworks hold sequencing errors
Procedure, shortened: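 Galactose-induced (36–48 hours) yeast carrying a synthetic nanobody display library were exposed to 10% biotinylated, detergent-solubilized Sf9 membrane reagent at 4 °C for 1 hour. FACS followed streptavidin microbead enrichment, using low and high (top ~1%) gates for expression (anti-HA) and reagent binding (streptavidin). Colony PCR, MiSeq 2 × 250 sequencing and CDR-length filtering followed. Labels for polyreactivity reflect the gate of origin.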

Row | Sequence | polyreactivity (PSR sort gate)
1 | QVQLVESGGGLVQAGGSLRLSCAASGRIFGLNGMGWSRQAPGKERELVARISSVGSTYSADSVKGRFTISRDNAKNTVDLQKNSLTPEDTSVYYCNRRRSRYLPTPDRIVEYDYWGQGTQVTVSS | low polyreactivity
2 | QVQLVESGGGLVQAGGSLRLSCAASGSTFLWNAMGWYRQAPAKERELVAAISYSGGSTYYADSVKGRFTISRDNAMNTVYLQKNSLKPEDTAFYYCAKEWFYDPYPPGYDSWGQGPQVTVSS | low polyreactivity
3 | QVQLVESGGGLVQAGGSLRLSCAASGFIFVDYDMGWYRQAPGKERELVAAITDSGTSTYYADSVKGRFTISRDNAKNTVYLQMNSLKPEDTAVYYCNTDVSPSFDYWGQGTQVTVSS | low polyreactivity
4 | QVQLVESGGGLVQAGGSLRLSCAASGSIFKYYAMGWYRQAPGKEREFVAAITRSGGSTYYADSVKGRFTISRDNAKNTVYLQMNSLKPEDTAVYYCAARSYARPGGSRFDYWGQGTQVTVSS | high polyreactivity
5 | QVQLVESGGGLVQAGGSLRLSCAASGRIFYVYAMGWYRQAPGKERELVAAITSSGGTTYYADSVKGRFTISRDNAKNTVYLQMNSLKPEDTAVYYCNLIYRYGWGDYWGQGTQVTVSS | high polyreactivity
6 | QVQLVESGGGLVQAGGSLRLSCAASGLTIITNAMGWYRQAPGKERELVAAISGTGGSTYYADSVKGRFTISRDNAKNTVYLQMNSLKPEDTAVYYCAAAPYTFWVGDSWGQGTQVTVSS | high polyreactivity
7 | QVQLVESGGGLVQAGCSLRLSCAASGRISKRYTMGWYRQAPGKERELVAAINSSTSTSYADSVKGRFTISRDNAKNTVYLKMNSRKPEDTAVYYCNARYNYSYDYNYWGQGTQVTVSS | low polyreactivity
8 | QVKLVESGGGLVQAGGSLRLSCAASGSIVVRYTMGWYRQAPGKERELVAAIYWGGGSTYYADSVKGRFTISRDNAKNTVYLQMNSLKAEDTAVYYCKKRYILLYDYWGQGTQVTVSS | low polyreactivity
9 | QVQLVESGGGLVQARGSLRLSCAASGSTFHQYVMGWYRQAPGKESELVAAINSSGSSTYYADSVKGRFTISRDNAKNTVDLQMNSLKPEDTAVYYCARDGLRNPGGYGFWGQGTQVTVSS | low polyreactivity
10 | QVQLLESGGGLVQAGGSLRLSCAASGSTFPRYVMGWYRQAPGKERELVAAISSSSGRTFYADSVKGRFTISRDNAKNTVYLQMNSLKPEDTSVYYCAARTSFNVHYWGQGTQVTVSS | high polyreactivity
11 | QVQLVESGGGLVQAGGSLRLRCAASGRIFGRYAMGWYRQAPGKERELVARITYIAGNTYYADSVKGRFTISRDNSKNTVYLQMKSLKPEDTAVYSCNADSYYIQYDYWGQGTQVTVSS | high polyreactivity
12 | QVQLVESGGGLVQAGGSLRLSCAASGRIFRYYAMGWYRQAPGKERELVAGISWRGSSTYYADSVKGRFTISRDNAKNTVYLQMNSLKPADTAVYYCNRDLSIIPVTGGRFYYWGQGTQVTVSS | high polyreactivity
13 | QVQLVESGGGLVQAGGSLRLSCASSGFTYGTNAMVWYRQAPGKERELVAAISSRGGSTYYADSVKGRFTISRDNAKNTVYLLMNSLKPEDTAVYYCARRVARRQHEYGYWGQGTQVTVSS | high polyreactivity
14 | QVQLVESGGGLVQAGGSLRLSCAASGLIFKYNVMGWYRQAPGKERELVAAITKRGGSTYYADSVKGRFTISRDNAKNTVYLQMNSLKPEDTAVYYCAARPVNTVRPFDYWGQGTQVTVSS | high polyreactivity
15 | QVQLVESGGGLVQAGGSLRLSCAASGRTFWVYAMGWYRQAPGKERELVAAIRRGGITNYADSVKGRFTISRDNAKNTVYLQMNSLKPEDTAVYYCATDNYGYLTRYYYWGQGTQVTVSS | low polyreactivity
16 | QVHLVESGGGLVQAGGSLRLSCAASGGIFLDNAMGWYRQAPGKERELVASIRTRTYYADSVKGRFTISRDNAKNTVYLQMNSLKPEDTAVYYCAAAHRRWDGDYNYWGQGTQVTVSS | high polyreactivity
17 | QVQLVESGGGLVQAGGSVRLSCAASGRIFRHNTRGWYRQAPGKERELVAAITFSDGNTYYADSVKGRFTISRDNAKNTVYLQMNSLKPEDTAVYYCNAGYSYGVSYAEGGYWGQGTQVTVSS | low polyreactivity
18 | QVQLVESGGGLVQAGGSLRLICAASGFIIYIYAMGWYRQAPGKERELVAAISRSGVGTYYADSVKGRFTISRDNAKNTVYLQMNSLKPEDTAVYYCARSRSGYRYDYWGQGTQVTVSS | high polyreactivity
19 | QVQLVESGGGLVQAGGSLRLSCAASGSTFWLNAMGWYRQAPGKERELVADISRSGGSTYYADSVKGRFTISRDNAKNTVYLQMNSLKPEDTAVYYCAADSWPDQFTVYPGGDYWGQGTQVTVSS | low polyreactivity
20 | QVQLVESGGGLVQAGGSLRLSCAASGRIFGIYAMGWYRQAPGKERELVARITGGGSTNYADSVKARFTISRDNEKNTVYLQMNSLKPEDTAVYYCASTVRRIVGNITRYDYWGQGTQLTVSS | low polyreactivity
21 | QVQLVESGGGLVHAGGSLLLSCAASGFISSRYAMGWYRQAPGKERELVAAISRGGGSTYYADSVKGRFTISRDNAKNSVYLQMNSLKPEYTAVYYCAAAARGSPQYDYWGQGSQVTVSS | high polyreactivity
22 | QVQLVESGGGLVQAGGSLRLSCSASGSIFDAYAMGWYRQAPGKERELVAAITTGGGSTYYADSVKGRFTISRDNAKNTVYLQMNSLKPEDTAVYYCAAEGFATDGWWYYKAYDDWGQGTQVTVSS | low polyreactivity

Row | Sequence | polyreactivity (PSR sort gate)
23 | QVQLVESGGGLVQAGGSLRLSCAASGSIFVVYSMGWYRQAPGKERELVAAISWGIGSTYYADSVKGRFTISRDNAKNTVYLQMNSLKPEDTALYYCAADTDIVLYDYWGQGTQVTVSS | low polyreactivity
24 | QVQLVESGGGLVQAGGSLRLSCAASGSIFPVYAMGWYRQAPGKDRELVAAISFSTGSTYYADSVKGRFTISRDNAKNTVYLQMNSLKPEDTAVFYCAKYDYTDYEYWGQGTQVTVSS | high polyreactivity
25 | QVQLVESGVGLVQAGVILRLSCAASGRTFRRNAMGWYRHAPGKERELVAAISWRGGSTYYADSVKGRFTISRDNAKNTVYLQLNSMKPEDTAVYYFAAGFESYDYWGQGTQVTVSS | high polyreactivity
26 | QVQLVDSGGGLVQAGGSLRLSCAASGSTFSHYTMGWYRQAPGKERELVAAINYGGASTYYADSVKGRFTISRDNAKNTVYLQMNSLKPEDTAVYYCAAANRPSEQDNYWGQGTQVTVSS | low polyreactivity
27 | QVQLVESGGGLVQAGGSLRLSCAASGRTFYIYAMGWYRQAPGKERELVAAITRGGGSTSYADSVKGRFTISRDNAKNTVYLQMNSLKPEDTAVYYCAARYYFRWRRYDYWGQGTQVTVSS | high polyreactivity
28 | QVQLVESVGGLVQAGGSLRLSCAASGLTSGLNAMGWYRQAPGKERELVATIRTNGGSTYYADSVKGRFTISRDNAKNTVYLQMNSLKPEDTAVYYCAADSVLDRPVLYLWPWYLGDYWGQGTQVTVSS | low polyreactivity
29 | QVQLVESGGGLVQAGGSLRLSCAASGLTFSVYAMGWYRQAPGKDRELVAAISGSGGSTYYADSVKGRFTISRDNAKNTVYLQMNSLKPEDTAVYYCAADGRYFRAVFRLYDYWGQGTQVTVSS | low polyreactivity
30 | QVQLVESGGGLVQAGGSLRLSCAASGSILSAYDMGLYRKAPGKDRELVAAIHSSGGSTYYADSVKGRFTISRDNAKNTVYLQMNSLKPEDTAVYYCAATSLAGYYQFDYWGQGTQVTVSS | low polyreactivity
31 | QVQLQESDGGLVQAGGSLRLSCAASGSISPQYYMGWYRQEPGKEREYVAISKGTTTYYADSVKGRLTISRVNAKNTVYLQMNRLKPEDTAVYCCAAGRWLQKVHAYWDQGTQVTVSS | low polyreactivity
32 | QVQLVESGGGLVQAGGSLRLSCAASGRTFGTNAMGRYRKAPGKERELVAAITWRGGSTSYADSEKGRFTISRDNAKNSVYFQMNSLKPEDPAVYYCAVRLRYPGNTFYYLGQGTQVTVSS | high polyreactivity
33 | QVQLVESGGGLVQAGGSLRLSCAASGFIFYTNAMGWYRQAPGKERELVAAISRGGTTYYADSVKGRFTISRDNAKNTVYLQMNSLKPEDTAVYYCAKAWPDHWYSRYDYWGQGTQVTVSS | low polyreactivity
34 | QVQLVESGGGLVQAGGILRLSCPASGSIIVFYAMGWYRQAPGKEREIVATITWSGTSTYYADSVKGRFTISRDYAKNTVYLQKNSLKPEDTAVYYCNARTVKASYVGYNYWGQGTQVTVSS | high polyreactivity
35 | QVQLVESGGGLVQAGGSLRLSCAASGRIFYRNAMGWYRQAPGQERELDAGITRGGSTNYADSVKGRFTISRDNAKNTVYLQMNSLKPEDTAVYYCAKAIPAKFYSEAGYDYWGQGTQVTVSS | low polyreactivity
36 | QVQLVESGGGLVQAGGSLRLSCAASGITFKYYTMGWYRQAPGKERELVAAISRGGSTNYADSVKGRFTISRDNAKNTVYLQMNSLKPEDTAVYYCAVDVPEFWWYRVIYDGYYWGQGTQVTVSS | high polyreactivity
37 | QVQLVESGGGLVQAGGSLRLSCAASGRTFFENAMGWYRQAPGKEREFVAAISYNGGSTYYADSVKGRFTISRDNAKNTVYLQMNSLKPEDTAVYYCAAEADGLRYDDNYWGQCTQVTVSS | low polyreactivity
38 | QVQLVKSGGGLVQAGGSLRLSCAASGRTFWGYAMGWYRQAPGKERELVAAISSGGDTTYADSVKGRCTISRDNAKNTVYLQMNSLKPEDTAVYYCAADRWIPVYILGADGYDYWGQGTHVTVSS | low polyreactivity
39 | QVQLVESGGGLVQAGGSLRLSCAASGRTFSYNARGWYRPAPGKEMELVASISSSGTSTSYADSVKGRFTISRDYAKNTVYLQMNSLKPEDTAVYYCATVRYPYWYSGPQNSRGYWGQGSQVTVSS | high polyreactivity
40 | QVQLVESGGGLVQAGGCLRLSCDASGFTFAFYAMGWYRQAPGKEIELVAAISRRGGSTTYADSVKGRFTISRDNAKNTVYLQMHSLKPEDTAVYYCNAVSTRNPGPDSYYWGQGTQVTVSS | high polyreactivity
41 | QVQLVESGGGLVQAGGSLRLSCAASGFTFWVYAMGWYRQAPGKERELVAAISARGGSTYYADSVKVRFTISRDNAKNTVYLQMNRLKPEDTAVYYCAAEPSGKRSKFYYWGQGTQVTVSS | high polyreactivity
42 | QVQLVESGGGLVQAGGSLRLSCAASGRIFRVYAMGWYRQAPGKERELVAAINRSGGTTYYADSVKGRFTISRDNAKHTVYLQMNSLKPEDTAVYYCNAPVRRDVAYGYWGQGTQVTVSS | high polyreactivity
43 | QVQLVETGGGLVQAGGTLRLSCAPSGRIFPYNDMGLYRQAPGKERELVAANSSGGTTDYADSVKGRFTISRDNAKNTVYLQMNSLKPEDTAVYYCAATYVYWTWGYDYWGQGTQVTVSS | low polyreactivity
